T1: HMG2 coated on ELISA plates (Bos taurus (Bovine), UniProt P40673 2-209)
T1 construct: also called HMGB2; HMBG2
T1 sequence: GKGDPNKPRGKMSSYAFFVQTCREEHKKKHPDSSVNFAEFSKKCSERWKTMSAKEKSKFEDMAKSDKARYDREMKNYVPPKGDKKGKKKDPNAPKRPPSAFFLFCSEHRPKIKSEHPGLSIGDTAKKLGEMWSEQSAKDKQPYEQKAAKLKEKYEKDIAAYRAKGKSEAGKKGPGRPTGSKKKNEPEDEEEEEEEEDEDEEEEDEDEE

T2: HMG1 B Box peptide amino acids 91-169
T2 construct: also called HMG1 peptide 91-169
T2 peptide: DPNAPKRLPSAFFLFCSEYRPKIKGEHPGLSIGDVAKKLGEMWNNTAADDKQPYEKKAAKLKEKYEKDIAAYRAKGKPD

T3: HMG1 B Box peptide amino acids 150-183
T3 peptide: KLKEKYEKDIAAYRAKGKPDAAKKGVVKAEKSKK

T4: HMG1 purified from calf (bovine) thymus (bovine, UniProt P10103 2-215)
T4 construct: also called Calf thymus HMGB1; thymus HMG1
T4 sequence (looked up): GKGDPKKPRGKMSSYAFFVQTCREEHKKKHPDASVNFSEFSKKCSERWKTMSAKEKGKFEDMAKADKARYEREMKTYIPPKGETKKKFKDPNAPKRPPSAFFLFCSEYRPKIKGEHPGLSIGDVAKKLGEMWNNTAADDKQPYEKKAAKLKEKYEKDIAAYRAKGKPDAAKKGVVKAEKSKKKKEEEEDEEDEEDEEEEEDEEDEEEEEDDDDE


Experiments:
[1] = biological target: T5, recombinant HMG1 produced in E. coli as a calmodulin binding protein (CBP) fusion (human); assay: cell-based or functional assay
[2] = biological target: T1, HMG2 coated on ELISA plates; assay: direct ELISA, HMGB2 coated at 5 ug/mL, OD 490
Protocol: (§1) Binding to HMG1 vs. HMG2: Ultra high-binding ELISA plates (ThermoLab systems, #3855) were coated with either 5 ug/mL of Calf thymus HMGB1 or HMBG2 diluted in 10 mM Phosphate buffered saline (PBS), pH 7.2 and incubate overnight at 4 degrees. The plates were washed twice with Ca and Mg free PBS and 100 microliters of anti-HMGB1 antibody diluted in 10 mM PBS, pH 7.2+1% bovine serum albumin (BSA) to a final concentration of 10 ug/mL was added to each well and the plates were incubated 1 hour at room temperature. The wells were washed three times with 100 μl of PBS, pH 7.2. HRP labeled goat-anti-human IgG Kappa-chain (KPL, #14-10-10) and goat-anti-human IgG Lambda-chain (KPL, #14-10-11) were diluted in 10 mM PBS+1% BSA 1:1000 and 100 μl were added to each well and incubated for 1 hour at room temperature. The wells were then washed three times with 100 μl of PBS, pH 7.2. OPD substrate (Pierce chemical company, #34006) was prepared following the manufacturers instructions and 100 μl of prepared substrate was added to each well and the plates incubated at room temperature in the dark for 20-30 minutes. The reaction was stopped with the addition of 100 μl of 2M H₂SO₄, and the plates read on a plate reader at a wavelength of 490 nm.

[3] = biological target: T5, recombinant HMG1 produced in E. coli as …; assay: BIAcore 3000, mAb amine-coupled to CM5, HMG1 injected, steady-state model
Protocol: HMG1 Binding Affinity via BIAcore Analysis: All experiments were performed on a BIAcore 3000 instrument (BIAcore, Inc., Piscataway, N.J.). Briefly, each mAb was immobilized to a CM5 sensor chip using a standard amine coupling chemistry. Separately a reference (control) flow cell was also prepared. Two-fold, serial dilutions of HMG1 in instrument buffer were sequentially injected at a slow flow rate over the individual mAb and reference flow-cell surfaces. Following the binding and dissociation of HMG1, the mAbs surfaces were regenerated with a brief pulse of 1M NaCl-50 mM NaOH. At the end of each experiment, the binding curves were evaluated using a steady-state model available through the BIAevaluation software supplied by BIAcore, Inc. (Piscataway, N.J.).

[4] = biological target: T2, HMG1 B Box peptide amino acids 91-169; assay: ELISA, HMG1 B Box peptide 91-169 coated at 10 ug/ml, antibody titrated, OD 450
Protocol: (§2) The plate was then blocked with 4% milk powder dissolved in PBS at 37° C. for 1 hour. The blocking solution was removed and replaced with human anti-HMG1 antibodies at various concentrations (see FIGS. 5A-B). […] HRP activity was detected with Sureblue HRP substrate (KPL). Plates were read at 450 nm using a Kinetic Microplate Reader (Molecular Devices). […] After washing and blocking with 1% BSA in PBS, the biotinylated peptides were individually added into the avidin coated wells and incubated for 30 min at room temperature. The serial diluted antibody G4, S16 and S6 at the initial concentration at 10 μg/ml were then transferred into the wells followed by adding mouse anti human IgG-HRP conjugate (Pierce). Detection was accomplished by adding 50 μl of tetramethylbenzidine (TMB) substrate (KPL) and the absorbance was read at 450 nm.

[5] = biological target: T3, HMG1 B Box peptide amino acids 150-183; assay: ELISA, HMG1 B Box peptide 150-183 coated at 10 ug/ml, antibody titrated, OD 450
Protocol: as §2

[6] = biological target: T4, HMG1 purified from calf (bovine) thymus; assay: direct ELISA, calf thymus HMGB1 coated at 5 ug/mL, antibody at 10 ug/mL, anti-human kappa/lambda-HRP, OD 490
Protocol: as §1

[7] = biological target: T5, recombinant HMG1 produced in E. coli as …; assay: ELISA, coated RAGE-Fc, rHMG1 preincubated with antibody
Protocol: HMG1 binding to RAGE-Ig by ELISA: 50 μl/well of RAGE-Fc fusion protein at 5 μg/ml in PBS was added to each well of an ELISA plate and incubated overnight at 4° C. The plate was then blocked with 200 μl of 5% milk at 37° C. for 1 hr and washed 3× with PBS/Tween. 50 μl/well of diluted HMGB1 solution. For dose curves, HMGB1 concentrations started at 4 ug/ml in PBS. For antibody blocking the HMGB1 was preincubated in another plate with human anti-HMG1 antibodies or buffer, then transferred to the RAGE-coated plate. The plates were then incubated at room temperature for 2 hours and washed 3×. To detect any HMG1 bound to the immobilized RAGE-Fc a mixture of biotinylated mouse anti-HMG1 mAbs (10D4, 4H11, 3E10 and 5C12) each at 1 ug/ml, total Ab: 4 ug/ml, were added to each well and the plate was incubated for 1 hour at room temperature. The plate was then washed and Strepavidin-HPR was added to each well and incubated 15 min. The plate was then washed 3× and blotted dry. 100 μl of TMB developing agent was added and the plate read at 650 nm. Values were calculated as percent of inhibition with HMG1 alone equal to 0% inhibition. The data in FIG. 9 and summarized in Table 1 represent the average of two separate experiments.

T5 sequence (P09429 whole entry, the tested form may be a part): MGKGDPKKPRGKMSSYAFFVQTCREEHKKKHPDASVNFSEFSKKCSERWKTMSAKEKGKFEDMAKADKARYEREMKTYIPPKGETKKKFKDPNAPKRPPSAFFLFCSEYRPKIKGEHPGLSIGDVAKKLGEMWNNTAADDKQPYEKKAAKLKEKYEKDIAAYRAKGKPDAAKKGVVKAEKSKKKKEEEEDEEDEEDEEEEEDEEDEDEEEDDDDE

Binder	IC50 IL-1β [1]	IC50 IL-6 [1]	IC50 NO [1]	IC50 TNF-α [1]	binding result [2]	Kd [3]	binding result [4]	binding result [5]	binding result [6]	IC50 IL-12 [1]	percent inhibition of HMG1 binding to RAGE [7]
human anti-HMG1 antibody G20 (antibody, IgG1, V domains shown, full length IgG1 made from a human Fab phage clone) VH: EVQLLESGGGLVQPGGSLRLSCAASGFTFSWYDMFWVRQAPGKGLEWVSWISPSGGYTKYADSVKGRFTISRDNSKNTLYLQMNSLRAEDTAMYYCARSGLDYYDSSGYLDAFDIWGQGTMVTVSS VL: DIQMTQSPSSVSASVGDRVTITCRASQDVSIWLAWYQQKPGKAPKLLIFGASRLQSGVPSRFSGSRSGADFTLTIDSVQPEDFASYYCQQADSFPLTFGGGTKVEIK	0.4 µg/mL	0.652 nM	20.4 µg/mL	0.598 µg/mL	no binding (tested: 10 ug/mL (single concentration))	114 nM	no binding (tested: 10 ug/ml (log 1.0))	no binding (tested: 10 ug/ml (log 1.0))	binds	–	–
human anti-HMG1 antibody S10 (antibody, IgG1, V domains shown, full length IgG1 made from a human Fab phage clone) VH: EVQLLESGGGLVQPGGSLRLSCAASGFTFSWYDMWWVRQAPGKGLEWVSWIVPSGGITAYADSVKGRFTISRDNSKNTLYLQMNSLRAEDTATYYCARGNYGPSPFDYWGQGTLVTVSS VL: DIQMTQSPGTLSLSPGERATLSCRATQSVRKNFLAWYQQKPGQAPRLLIYDASSRATGIPDRFSGSGSGTDFTLTISRLEPEDFAVYYCQQYGNSPIIFGQGTRLEIK	2.59 µg/mL	0.324 nM	–	0.875 µg/mL	no binding (tested: 10 ug/mL (single concentration))	54 nM	no binding (tested: 10 ug/ml (log 1.0))	no binding (tested: 10 ug/ml (log 1.0))	binds	1.13 µg/mL	≥ 35%
human anti-HMG1 antibody S14 (antibody, IgG1, V domains shown, full length IgG1 made from a human Fab phage clone) VH: EVQLLESGGGLVQPGGSLRLSCAASGFTFSWYETGWVRQAPGKGLEWVSGISPSGGYTQYADSVKGRFTISRDNSKNTLYLQMNSLRAEDTAVYYCARSGVGATKIFDYWGQGTLVTVSS VL: DIQMTQSPSSLSASVGDRVTIICRANERINTYLNWYQQKPGKAPKLLISGTSSLESGVPSRFSGSGSGTEFTLSISSLQPEDFASYYCQQSYSSPYTFGQGTNLEIR	0.0578 µg/mL	0.191 nM	–	0.0662 µg/mL	no binding (tested: 10 ug/mL (single concentration))	205 nM	no binding (tested: 10 ug/ml (log 1.0))	no binding (tested: 10 ug/ml (log 1.0))	binds	–	–
human anti-HMG1 antibody G12 (antibody, IgG1, V domains shown, full length IgG1 made from a human Fab phage clone) VH: EVQLLESGGGLVQPGGSLRLSCAASGFTFSYYMMTWVRQAPGKGLEWVSSISPSGGYTIYADSAKGRFTISRDNSKNTLYLQMNSLRAEDTAVYYCARALSTGSFWDYWGQGTLVTVSS VL: DIQMTQSPGTLSLSPGERATLSCRASESLTSTYVAWYQHKPGQAPRLLIHGGSTRATGIPVRFSGSGSGTDFTLTIATLEPEDFAVYYCQQYGSSPYTFGQGTKLEIK	5.91 µg/mL	1.12 nM	–	0.796 µg/mL	no binding (tested: 10 ug/mL (single concentration))	73 nM	no binding (tested: 10 ug/ml (log 1.0))	no binding (tested: 10 ug/ml (log 1.0))	binds	2.79 µg/mL	–
human anti-HMG1 antibody G9 (antibody, IgG1, V domains shown, full length IgG1 made from a human Fab phage clone) VH: EVQLLESGGGLVQPGGSLRLSCAASGFTFSSYDMFWVRQAPGKGLEWVSRISPSGGYTYYADSVKGRFTISRDNSKNTLYLQMNSLRAEDTAVYYCARLRYFDSRGYAFDIWGQGTMVTVSS VL: DIQMTQSPGTLSLSPGERATLSCRASQSVRSSYLAWYQQKPGQAPRLLIYGASTRATGIPDRFSGSGSGTDFTLTISRLEPEDFAVYYCQQYGTSRWTFGQGTKVEIK	0.211 µg/mL	0.246 nM	–	0.248 µg/mL	no binding (tested: 10 ug/mL (single concentration))	125 nM	no binding (tested: 10 ug/ml (log 1.0))	no binding (tested: 10 ug/ml (log 1.0))	binds	–	–
human anti-HMG1 antibody G34 (antibody, IgG1, V domains shown, full length IgG1 made from a human Fab phage clone) VH: EVQLLESGGGLVQPGGSLRLSCAASGFTFSHYMMGWVRQAPGKGLEWVSRISPSGGGTVYADSVKGRFTISRDNSKNTLYLQMNSLRAEDTAVYYCARGGNWNYISYYYYYLDVWGKGTTVTVSS VL: DIQMTQSPSSLSASVGDRVAITCRASQSIDTYLNWYQQKPGKAPKLLIYAASKLEDGVPSRFSGSGTGTDFTLTIRSLQPEDFASYFCQQSYSSPGITFGPGTKVEIK	–	0.858 nM	–	–	no binding (tested: 10 ug/mL (single concentration))	67 nM	no binding (tested: 10 ug/ml (log 1.0))	no binding (tested: 10 ug/ml (log 1.0))	binds	–	–
human anti-HMG1 antibody G35 (antibody, IgG1, V domains shown, full length IgG1 made from a human Fab phage clone) VH: EVQLLESGGGLVQPGGSLRLSCAASGFTFSWYKMVWVRQAPGKGLEWVSSIVPSGGITIYADSVKGRFTISRDNSKNTLYLQMNSLRAEDTAVYYCARVQQWLGRPYFDYWGQGTLVTVSS VL: DIQMTQSPLSLPVTPGEPASISCRSSQSLLHGNGYNYLDWYLQRPGQSPQLLIYSGSNRASGVPDRFSGSGSGTDFTLKISRVEAEDVGVYYCMQSLQSRTFGQGTKVEIK	–	0.564 nM	–	–	no binding (tested: 10 ug/mL (single concentration))	242 nM	–	no binding (tested: 10 ug/ml (log 1.0))	binds	–	–
